Experimental findings from PMC7413375, “A study on the response of FRET based DNA aptasensors in intracellular environment” are described below.

This series has as its target TNF-alpha (UniProt P01375 77-233). Nature of the series: FRET quenching (QD photoluminescence decreases with TNF-alpha); DSS peptide-conjugated QD/Au molecular beacon, TNF-alpha in PBS; TNF-alpha samples in PBS; other assay conditions (temperature, concentrations) not in the material; beacon washed in 50 mM borate pH 8.3. The note with it: chain copies: 3.

Chain of TNF-alpha (P01375 77-233): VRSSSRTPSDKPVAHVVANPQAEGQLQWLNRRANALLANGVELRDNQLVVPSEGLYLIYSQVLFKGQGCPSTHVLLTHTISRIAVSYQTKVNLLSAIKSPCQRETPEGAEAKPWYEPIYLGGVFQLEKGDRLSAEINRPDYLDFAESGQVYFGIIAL

Take TGGTGGATGGCGCAGTCGGCGACAA (ssDNA, 5' Amino C6; 3' Thiol C6 SS) [TNF-alpha binding DNA aptamer (25 nt) in DSS-molecular beacon]: the binding result is “binds”.
